Results on five molecules are retold here after patent US20050100919, “Nucleic acid-based detection” (Brandeis University, a Massachusetts corporation, published 2005).

Series [1] deals with T1, thrombin (UniProt P00734;P00734 P00734:328-363,P00734:364-622). As to the kind of experiment: fluorescence change at 100 nM thrombin in TBB; not saturated at 250 nM.
Series [2] concerns the target T1, thrombin. Kind of series: competition; filter binding competition against radiolabeled G15D5d, TBB; displacement curve only in figure.
Series [3] addresses T1, thrombin. Kind of series: fluorescence beacon titration, TE buffer, 24 C; estimated.
Series [4] concerns the target T1, thrombin. As to the kind of experiment: fluorescence change at 100 nM thrombin in TE.
Series [5] addresses T1, thrombin. Kind of series: half-maximum effect, fluorescence decrease, TBB (20 mM Tris-HCl, 140 mM NaCl, 5 mM KCl, 1 mM MgCl2, 1 mM CaCl2, pH 7.5).
The target of series [6] is T1, thrombin. As to the kind of experiment: fluorescence ratio at 100 nM thrombin in TBB; 0.7 in TE.
The target of series [7] is T1, thrombin. As to the kind of experiment: fluorescence beacon titration, TE buffer (20 mM Tris-HCl, 1 mM EDTA, pH 7.5), 24 C; estimated.
The target of series [8] is factor IX (UniProt P00740 P00740:47-461). Kind of series: specificity control; no effect on beacon fluorescence in TE. The note with it: tags: purchased from Enzyme Research Lab; label: 5'-fluorescein, 3'-DABCYL; alternate 5-bp stem-loop / G4. Here is the method:
Thrombin binding assay using a fluorescence spectrometer: The aptamers were diluted to a concentration of 10 uM in TBB or TE (20 mM Tris-HCl, 1 mM EDTA, pH7.5) and heated at 99° for three min and cooled down to room temperature prior to the experiment. The experiment was performed using 5-40 nM of aptamer in 2 ml. All of the fluorescence intensity measurements were performed at 24° C. The excitation wavelength was 495 nm and the emission was monitored at its peak, 516 nm (in TE) or 518 nm (in TBB). A small volume (0.5-3 μl) of thrombin (final concentration of 0-250 nM) was added and the change of emission was monitored.
To confirm the binding specificity of G15D5dMB, we used factor IX, which is a plasma serine protease, as is thrombin, and shares a sequence identity of 37% in the catalytic domain with thrombin.

The target in series [9] is T1, thrombin. Kind of series: competition; affinity increase relative to G15D5d, filter binding competition in TE.

Chain of factor IX (P00740 47-461, one chain of several): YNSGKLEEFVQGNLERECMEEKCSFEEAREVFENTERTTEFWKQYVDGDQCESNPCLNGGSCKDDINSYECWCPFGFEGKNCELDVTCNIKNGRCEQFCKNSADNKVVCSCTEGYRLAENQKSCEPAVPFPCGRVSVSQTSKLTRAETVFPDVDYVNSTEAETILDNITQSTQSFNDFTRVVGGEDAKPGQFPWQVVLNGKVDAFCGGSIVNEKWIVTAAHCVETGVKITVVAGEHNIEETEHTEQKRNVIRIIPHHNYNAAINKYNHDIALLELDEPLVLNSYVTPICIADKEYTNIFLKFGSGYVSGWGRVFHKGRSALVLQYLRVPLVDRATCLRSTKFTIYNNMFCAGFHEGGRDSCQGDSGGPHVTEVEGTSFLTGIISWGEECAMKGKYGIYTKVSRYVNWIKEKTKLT

CCAAGGTTGGTGTGGTTGG (ssDNA) [G15D4dMB] yielded an activity in series [1] of 1.5 fold.
In the case of GGTTGGTGTGGTTGG (ssDNA) [G15D], the binding result in series [2] is “binds”.
The Kd is the constant that tells how readily two partners part at equilibrium. For the molecule CCAACCGGTTGGTGTGGTTGG (ssDNA) [G15D6dMB], the Kd in [3] was 0.012 µM. In series [4], this molecule returned an activity of 1.7 fold.
What is called EC50 is the concentration at which the effect is half-maximal. A low value points to an effect from little substance. With TTTTTGGTTGGTGTGGTTGG (ssDNA) [G15D5ndMB], the EC50 in [5] was ~0.08 µM. Besides, the activity in series [6] was found to be 0.5 fold.
In the case of CCAACGGTTGGTGTGGTTGG (ssDNA) [G15D5dMB], the Kd in [7] is 0.003 µM. Moreover, in series [4], the activity is 2.3 fold. Further, the binding result in series [8] was “no binding”. Besides, the binding signal in series [9] is ~6 fold.
